According to US20250313612A1 (Adimab, published 2025):

B1: ADI-14492 (antibody, V domains shown)
VH: EVQLVESGGGLVRPGGSLGLSCSASGFIFSNAWMTWVRQAPGKGLEWVGHIKSKVNGGTTAYGAPVKGRFTISRDDSRNTLFLQMNSLKTEDTGVYYCTTGPPYQYFDDSGYSVVDYWGQGTLVTVSS
VL: QSVVTQPPSASGTPGQRVTISCSGSDSNIGTDYFYWYQQLPGSAPKLLIYGSNQRPSGVPDRFSGSQSGSAASLAISGLRSEDDADYYCAAWDDSLGGPVFGGGTKVTVL
notes: full-length IgG (yeast-expressed); also called Antibody Number 53; Ab# 53
B2: ADI-14495 (antibody, V domains shown)
VH: QITLKESGPTLVKPTQTLTLTCSFSGFSLTTRGVGVGWVRQPPGKALECLGFVYWDDDKRYSPSLRSRLTISEDTSKNQVVLTMTNMDPLDTATYYCVHSDLYDRGGYYLFYFDYWGQGTLVTVSS
VL: DIVLTQSPSSLSASVGDRVTITCRASQPIASYLNWYQHKPGKAPKLLIYAASSLQSGVSSTFSGRGSGTDFTLTITALQPEDFAIYYCQQSYTFPYTFGQGTKVDIK
notes: full-length IgG (yeast-expressed); also called Antibody Number 56; Ab# 56
B3: ADI-14522 (antibody, V domains shown)
VH: EVQLVESGAEVKKPGDSVKVSCRASGYSFTGPFLHWVRQAPGQRLEHMGWINPRSGETKYAQSFLGRVTMTRDTSIRSATLELSSLRSDDTAVYYCARDLYSSGWLDNWGQGTLVTVSS
VL: ETTLTQSPATLSVSPGERATLSCRASQGLSSNLAWYQHKPGQAPRLLVYGVATRATGVPARFSGSGSGTEFTLTISSLQSDDFALYYCHQYNDWPYTFGQGTKLEIK
notes: full-length IgG (yeast-expressed); also called Antibody Number 82; Ab# 82
B4: ADI-14503 (antibody, V domains shown)
VH: QVQLVQSGGGLVKPGGSLRLSCAASGFSLTNYRMNWVRQAPGKGLEWVSSLKDSSSYIYYADSVKGRFTVSRDDAKNSFFLQMTNVRAEDTAVYYCAREGSDTEYWRLTPPMDVWGNGTTVTVSS
VL: QSVLTQPPSVSVAPRQTARITCGEHNIGTKSVHWYQQKPGQAPVLVIYDDSDRPSGIPARFSGSNSGNTATLTISWVEAGDEAVYYCQVWDSGDHPWLFGGGTQLTVL
notes: full-length IgG (yeast-expressed); also called Antibody Number 64; Ab# 64
B5: ADI-14486 (antibody, V domains shown)
VH: QVQLQESGPGLVKPSETLSLTCTVSGGSINNYFWSWIRQPPGKGLEWLGYIYNSGSTYYNPSLNSRVTISLQKSKNQFSLHLTSMTAADTAVYFCARHPSVIYGTFGANGGPNWFDPWGQGTLVTVSS
VL: QSVLTQPASVSGSPGQSITISCTGTSSDVGGYNYVSWYQQHPGKAPKLMIFDVTYRPSGISNRFSGSKSGNTASLTISGLHSEDEADYYCSSYTGSNTVIFGGGTKLTVL
notes: full-length IgG (yeast-expressed); also called Antibody Number 47; Ab# 47
B6: ADI-14483 (antibody, V domains shown)
VH: QVQLVQSGGRLVKPGGSLRLSCGMSGFGFSSYRMNWVRQAPGKGLEWISSISASSSYTDYANSVKGRFTISRDGANLFLQMNSLRVEDTAVYYCARDWGGHSIFGAVQDLWGQGTLVTVSS
VL: QSVLTQPPSVSGAPGQRVTISCSGSSSNIGAGYDVHWYQQLPGTAPKLLIYGNTNRPSGVPDRFSGSKSGTSASLAITGLQAEDEADYYCQSYDRSLSQVFGAGTKVTVL
notes: full-length IgG (yeast-expressed); also called Antibody Number 44; Ab# 44
B7: ADI-14443 (antibody, V domains shown)
VH: QVQLVQSGTEVKKPGSSVKVSCKASGGTFGSYAVIWVRQAPGQGLEWMGHFIPVFATTNKAQKFQGRLTLSTDESTGTVYMELSSLRSEDTAVYFCATKRYCSDPSCHGLWYFDLWGRGTLVTVSS
VL: DIQLTQSPLSLPVTPGEPASISCRSSQSLLDSDDGNTYLDWYLQKPGQSPQVLIYMLSYRASGVPDRFSGSGSGTDFTLEISRVEAEDVGVYYCMQRVEFPYTFGQGTKLEIK
notes: full-length IgG (yeast-expressed); also called Antibody Number 6; Ab# 6
B8: ADI-14473 (antibody, V domains shown)
VH: QVQLVQSGAEVKKPGEPLRISCKGSGYTFTSYWISWVRQMPGTGLEWMGRIDPSDSYTYSSPSFQGHVTISVDKSISTAYLQWSSLKASDTAIYYCARHKENYDFWDFWGQGTLVTVSS
VL: ETTLTQSPDSLAVSLGERATINCKSSQTIFFNSNNKISLAWYQQKPGQPPKLLISWASTRESGVPDRFSGSGSGTDFTLTISSLQPEDVAVYFCQQYYSSAFFGPGTRLEIK
notes: full-length IgG (yeast-expressed); also called Antibody Number 35; Ab# 35
B9: ADI-14491 (antibody, V domains shown)
VH: EVQLVESGGGVVQPGRSLRLSCAASGFTFSDHAMYWVRQAPGKGLEWVALISFDGRNIYYADSVKGRFTISRDNSKNTLYLQMNSLRAEDTAVYYCARDQWLVPDYWGQGTLVTVSS
VL: QSVLTQPASVSGSPGQSITISCTGTSSDVGGYNYVSWYQQHPGNAPKLMIYEVSKRPSGVPDRFSGFKSGNTASLTVSGLQAEDEADYYCSSYAGSNSVFGTGTKVTVL
notes: full-length IgG (yeast-expressed); also called Antibody Number 52; Ab# 52
B10: ADI-14494 (antibody, V domains shown)
VH: EVQLVESGGGVVQPGRSLRLSCAASGFTFSDHAMYWVRQAPGKGLEWVALISFDGRNIYYADSVKGRFTISRDNSKNTLYLQMNSLRAEDTAVYYCARDQWLVPDYWGQGTLVTVSS
VL: QSALTQPASVSGSPGQSITISCTGTSSDVGGYNYVSWYQQHPGNAPKLMIYEVSKRPSGVPDRFSGFKSGNTASLTVSGLQAEDEADYYCSSYAGSNSVFGTGTKVTVL
notes: full-length IgG (yeast-expressed); also called Antibody Number 55; Ab# 55
B11: ADI-14525 (antibody, V domains shown)
VH: EVQLLESGGGVVQPGRSLRLSCTASGFTFSDHAMYWVRQAPGKGLEWVALISFDGRNIYYADSVKGRFTISRDNSKNTLYLQMNSLRAEDTAVYYCARDQWLVPDYWGQGTLVTVSS
VL: QSVLIQPASVSGSPGQSITISCTGTSSDVGGYNYVSWYQQHPGNAPKLMIYEVSKRPSGVPDRFSGFKSGNTASLTVSGLQAEDEADYYCSSYAGSNSVFGTGTQLTVL
notes: full-length IgG (yeast-expressed); also called Antibody Number 85; Ab# 85
B12: ADI-14461 (antibody, V domains shown)
VH: EVQLVESGGGVVQPGRSLRLSCAASGFTFSDHAMYWVRQAPGKGLEWVALISFDGRNIYYADSVKGRFTISRDNSKNTLYLQMNSLRAEDTAVYYCARDQWLVPDYWGQGTLVTVSS
VL: LPVLTQPASVSGSPGQSITISCTGTSSDVGGYNYVSWYQQHPGNAPKLMIYEVSKRPSGVPDRFSGFKSGNTASLTVSGLQAEDEADYYCSSYAGSNSVFGTGTKLTVL
notes: full-length IgG (yeast-expressed); also called Antibody Number 24; Ab# 24
B13: ADI-14438 (antibody, V domains shown)
VH: QVQLVQSGAEVKKPGASVKVSCRASGFVFTSYDINWVRQAPGQGLEWMGRMNAHTGQVTYAQKFQDKVSMTRDVSITTAYLELSRLASEDTAVYYCARPDINWGQDAFDVWGQGTMVTVSS
VL: DIRMTQSPSTLSASIGARVTITCRASQNIGNFLAWYQQKPGKAPKLLIYKASTLDPGVPSRFSGSGSGTEFTLTITSLQPDDFATFYCQQYKSDPTFGQGTKVEIK
notes: full-length IgG (yeast-expressed); also called Antibody Number 1; Ab# 1

What was measured:
[1] = molecular target: RSV F protein of recombinant mKate-RSV, subtype B (18537) (Respiratory syncytial virus subtype B …, UniProt P13843 26-574); assay: cell-based or functional assay
[2] = molecular target: RSV F protein of recombinant mKate-RSV, subtype A (strain A2) (Respiratory syncytial virus subtype A …, UniProt P03420 26-574); assay: cell-based or functional assay
[3] = molecular target: T1, RSV F ectodomain stabilized in the postfusion conformation (F ΔFP), subtype B (Respiratory syncytial virus subtype B, UniProt P13843 26-109; P13843 147-524); assay: BLI, IgG on AHQ sensor, 100 nM antigen
T1 construct: extracellular domain; trimer; also called Postfusion subtype B; postF subtype B

[4] = molecular target: T2, RSV F ectodomain stabilized in the postfusion conformation (F ΔFP), subtype A (Respiratory syncytial virus subtype A, UniProt P03420 26-109; P03420 147-524); assay: BLI, IgG on AHQ sensor, 100 nM antigen
T2 construct: extracellular domain; trimer; furin-cleaved; also called Postfusion subtype A

Row | Binder | Neut IC50 subtype B [1] [µg/mL] | Neut IC50 subtype A [2] [µg/mL] | Kd [3] [nM] | Kd [4] [nM]
1 | B1 | 0.681 | 0.204 | 0.111 | 0.166
2 | B2 | 17.4 | 0.864 | 1.71 | 0.367
3 | B3 | 7.29 | 3.53 | 1.06 | –
4 | B4 | 0.026 | 0.016 | – | 26.1
5 | B5 | – | – | 0.636 | 0.529
6 | B6 | 0.03 | 0.031 | 20 | –
7 | B7 | 0.063 | 0.047 | 0.137 | 0.19
8 | B8 | – | – | 0.151 | 0.224
9 | B9 | 0.102 | 0.105 | 0.158 | 0.238
10 | B10 | 0.089 | 0.084 | 0.155 | 0.24
11 | B11 | 0.108 | 0.135 | 0.149 | 0.23
12 | B12 | 0.152 | 0.129 | 0.156 | 0.231
13 | B13 | 0.237 | 0.289 | 8.29 | 11.8
